Tested on: lung-resident ILCs
Experiment: SMART-Seq2 plate-based scRNA-seq of lung-resident ILCs from PBS-, IL-25- or IL-33-treated mice, differential gene expression by logistic regression (Tables 3, 4)
Format: in vivo, mouse
Text: Mice and in vivo ILC activation. C57B1/6J mice were purchased from the Jackson Laboratory. Nmur1-LacZ reporter mice with a LacZ cassette knocked into the Nmur1 locus were rederived from Nmur1^tm1.1(KOMP)Vlcg sperm obtained from the trans-NIH Knock-Out Mouse Project (KOMP) Repository. NMU-deficient mice (NMU-KO) were rederived from B6.129S2-Nmu<tm1Mko> embryos from the RIKEN BioResource Center. For experiments with Nmur1-LacZ (Nmur1-KO) and NMU-KO mice, littermates that were either homozygous or heterozygous for the wild type allele were used as controls. Mice were housed under specific-pathogen-free conditions. For experiments, mice were matched for sex and age, and most mice were 6-10 weeks old. Where indicated, mice were anesthetized with Isoflurane and treated intranasally with the indicated stimuli (500 ng IL-25, 500 ng IL-33, or 20 μg Neuromedin U) daily for three consecutive days. The total administered volume was 20 μl for all conditions. Mice were randomly assigned to treatment groups after matching for sex and age. […] Mice were treated intranasally with 10 μg HDM on day 0, 7, 8, and 9, prior to sacrifice on day 10. All experiments were conducted in accordance with animal protocols approved by the Harvard Medical Area Standing Committee on Animals or BWH IACUC.
Fluorescence-activated cell sorting of innate lymphoid cells. After dissociation, single cell suspensions were incubated with CD90.2 MicroBeads (Miltenyi Biotec) on ice and enriched for CD90.2^+ cells by magnetic separation using LS columns according to the manufacturer's protocol. CD90.2^+ lung cells were then stained on ice with antibodies for sorting. ILCs were defined as 7AAD^− CD45^+ CD90.2^+ CD127^+ Lineage (CD11b, CD11c, CD19, NK1.1, […], CD4, CD8a, TCRβ, TCRγδ)^− cells and sorted on a BD FACS Aria (BD Biosciences).
For full-length scRNA-Seq, single ILCs were sorted into 96-well plates containing 5 ul TCL Buffer (QIAGEN) with 1% 2-Mercaptoethanol, centrifuged and frozen at −80° C. SMART-Seq2 protocol was carried out as previously described^23 with minor modifications in the reverse transcription step. cDNA was amplified with 22 cycles and fragmented with one-eighth of the standard Illumina NexteraXT reaction volume. Single-cell libraries were pooled and paired-end sequenced (38 bp×2) with a 75 cycle Nextseq 500 high output V2 kit.
Analysis of SMART-Seq2 plate-based scRNA-Seq data. Reads were aligned to mm10 using Kallisto (Bray, N. L., Pimentel, H., Meisted, P. & Pachter, L. Near-optimal probabilistic RNA-seq quantification. Nat Biotechnol 134, 525-527, doi:10.1038/nbt.3519 (2016)) quant, version 0.42.3. The R package tximport (Soneson, C., Love, M. I. & Robinson, M. D. Differential analyses for RNA-seq: transcript-level estimates improve gene-level inferences [version 2; referees: 2 approved]. F1000Research 4, doi:10.12688/f1000research.7563.2 (2016)), version 1.2.0, was used to convert the output to gene counts and traditional TPM values. Because of the variability in read counts per cell across plates, even from the same condition, as well as in the number of genes per cell across conditions, QC was performed for each of eight plates individually in order to remove cells that were outliers with respect to either measure. Out of 752 cells, 606 cells met QC criteria (234 from control, 152 from IL-25 treated mice, and 220 from IL-33 treated mice), and the number of genes per cell in this set ranged from 1,625 to 6,375. Genes that were not expressed with log(TPM)>2.5 in at least two cells were removed from further analysis. Subsequent analysis proceeded analogously to the droplet-based RNA-seq analysis, with parameter settings that reflected both the wider dynamic range of expression and much smaller cell numbers. The minimum ILC signature score required in ILC type assignment was 0.3. Variable genes were identified by running MeanVarPlot with x.low.cutoff=0.1, y.cutoff=1.5, and x.high.cutoff=10, resulting in a set of 519 genes. […]

B1: IL25 (protein, UniProt Q8VHH8 17-169, looked up)
Interleukin-25: VSLRIQEGCSHLPSCCPSKEQEPPEEWLKWSSASVSPPEPLSHTHHAESCRASKDGPLNSRAISPWSYELDRDLNRVPQDLYHARCLCPHCVSLQTGSHMDPLGNSVPLYHNQTVFYRRPCHGEEGTHRRYCLERRLYRVSLACVCVRPRVMA
- 0610031J06Rik expression coeff: 0.555
- 1700017B05Rik expression coeff: −1.49
- 1700113H08Rik expression coeff: −0.86
- 4632428N05Rik expression coeff: 1.28
- AA467197 expression coeff: −0.724
- AI593442 expression coeff: −2.55
- AI836003 expression coeff: −0.781
- AW112010 expression coeff: 0.787
- Abtb2 expression coeff: 0.292
- Acot7 expression coeff: 0.807
- Adrbk1 expression coeff: 0.798
- Adsl expression coeff: −1.77
- Ahcyl2 expression coeff: −1.01
- Amd1 expression coeff: −0.74
- Anxa2 expression coeff: 0.693
- Ap3d1 expression coeff: 0.719
- Arf5 expression coeff: 0.592
- Arhgap1 expression coeff: 1.34
- Arhgap26 expression coeff: 0.821
- Asl expression coeff: 1.17
- Asph expression coeff: −1.27
- Atp8b4 expression coeff: 1
- Atxn7l3b expression coeff: 0.557
- Bcl2a1d expression coeff: 0.357
- Bcl3 expression coeff: 1.33
- Bcl6 expression coeff: 1.29
- Bmp2 expression coeff: −0.856
- Brix1 expression coeff: −0.00742
- C1qbp expression coeff: −0.742
- Cap1 expression coeff: 1.28
- Cblb expression coeff: 1.08
- Ccdc50 expression coeff: 1.05
- Ccdc142 expression coeff: −1.86
- Ccng1 expression coeff: 0.622
- Ccr2 expression coeff: −1.53
- Cd247 expression coeff: 1.16
- Chdh expression coeff: −0.136
- Chordc1 expression coeff: 1.4
- Chst11 expression coeff: −0.0352
- Cirbp expression coeff: −1.41
- Commd10 expression coeff: −0.867
- Cox10 expression coeff: 0.786
- Cpsf7 expression coeff: 0.986
- Crlf2 expression coeff: 0.355
- Csf1 expression coeff: −1.01
- Cst7 expression coeff: −0.0555
- Ctla4 expression coeff: 1.48
- Ctsw expression coeff: −0.0379
- Cybrd1 expression coeff: −0.158
- Dcaf12 expression coeff: 0.717
- Ddrgk1 expression coeff: −0.21
- Ddx20 expression coeff: −1.24
- Ddx58 expression coeff: 0.528
- Dennd5a expression coeff: 0.929
- Dgka expression coeff: −0.0503
- Dhx35 expression coeff: −1.63
- Dhx37 expression coeff: −0.288
- Dhx58 expression coeff: 2.3
- Dkk3 expression coeff: −0.0269
- Dock10 expression coeff: −0.792
- E030030I06Rik expression coeff: −0.87
- Ecm1 expression coeff: −0.0192
- Endod1 expression coeff: 0.398
- Epsti1 expression coeff: 1.79
- Eva1b expression coeff: 0.99
- Exosc4 expression coeff: −0.31
- Extl3 expression coeff: −0.16
- Fam118a expression coeff: −0.764
- Fbxl21 expression coeff: 12.2
- Ffar2 expression coeff: 1.36
- Fhl2 expression coeff: −1.07
- Fosb expression coeff: 0.156
- Foxo3 expression coeff: 2.06
- Fus expression coeff: −0.388
- Gal3st3 expression coeff: −1.01
- Gba expression coeff: −0.05
- Gbp4 expression coeff: 0.318
- Gbp6 expression coeff: 0.949
- Gbp9 expression coeff: 0.745
- Gga1 expression coeff: 0.739
- Gigyf1 expression coeff: −0.844
- Glrx expression coeff: 0.346
- Gm12250 expression coeff: 3.54
- Gnai2 expression coeff: 0.501
- Gng2 expression coeff: 1.06
- Gnl3l expression coeff: −0.617
- Gp49a expression coeff: 1.04
- Gpr108 expression coeff: 0.205
- Grn expression coeff: −0.326
- Gskip expression coeff: 0.645
- Gucd1 expression coeff: −0.0721
- H2-T9 expression coeff: 0.437
- H2-T10 expression coeff: 0.799
- H2-T22 expression coeff: 0.0651
- Herc6 expression coeff: 0.579
- Hpcal1 expression coeff: −0.169
- Hsph1 expression coeff: 0.237
- Idh2 expression coeff: −0.56
- Ifi35 expression coeff: 0.307
- Ifngr2 expression coeff: −0.761
- Ifrd2 expression coeff: −1.53
- Igfbp4 expression coeff: −2.9
- Igsf5 expression coeff: −0.93
- Il2rb expression coeff: 0.699
- Il5 expression coeff: 1.4
- Il13 expression coeff: 1.61
- Impact expression coeff: −1.46
- Inpp1 expression coeff: 1.79
- Inpp4b expression coeff: −0.752
- Inpp5b expression coeff: 0.937
- Irf4 expression coeff: 1.11
- Irf7 expression coeff: 0.423
- Isg15 expression coeff: 2.03
- Isg20 expression coeff: 1.54
- Itgae expression coeff: −0.182
- Kit expression coeff: −0.406
- Krit1 expression coeff: 0.612
- Lamp2 expression coeff: 0.692
- Lancl1 expression coeff: −1.11
- Lat2 expression coeff: −0.0259
- Lcmt2 expression coeff: −2.32
- Lgals3bp expression coeff: 0.804
- Lgals3 expression coeff: 0.303
- Lilrb4 expression coeff: 0.943
- Lpcat2 expression coeff: −0.773
- Lsm6 expression coeff: −0.616
- Lxn expression coeff: 0.065
- Ly6a expression coeff: 0.412
- Map2k4 expression coeff: 1.89
- Marf1 expression coeff: 3.17
